Results published in patent US20080176263.

Columns and labels:
[1] = target: T1, TNO211 peptide (DABCYL-GABA-Pro-Gln-Gly-Leu-Glu(EDANS)-Ala-Lys-NH2)
T1 chain: PQGLEAK

B1: MMP-2 (protein)
chain: YNFFPRKPKWDKNQITYRIIGYTPDLDPETVDDAFARAFQVWSDVTPLRFSRIHDGEADIMINFGRWEHGDGYPFDGKDGLLAHAFAPGTGVGGDSHFDDDELWTLGEGQVVRVKYGNADGEYCKFPFLFNGKEYNSCTDTGRSDGFLWCSTTYNFEKDGKYGFCPHEALFTMGGNAEGQPCKFPFRFQGTSYDSCTTEGRTDGYRWCGTTEDYDRDKKYGFCPETAMSTVGGNSEGAPCVFPFTFLGNKYESCTSAGRSDGKMWCATTANYDDDRKWGFCPDQGYSLFLVAAHEFGHAMGLEHSQDPGALMAPIYTYTKNFRLSQDDIKGIQELYGASPDIDLGTGPTPTLGPVTPEICKQDIVFDGIAQIRGEIFFFKDRFIWRTVTPRDKPMGPLLVATFWPELPEKIDAVYEAPQEEKAVFFAGNEYWIYSASTLERGYPKPLTSLGLPPDVQRVDAAFNWSKNKKTYIFAGDKFWRYNEVKKKMDPGFPKLIADAWNAIPDNLDAVVDLQGGGHSYFFKGAYYLKLENQSLKSVKFGSIKSDWLGC
[1]
  protease activity (fluorescence from cleavage of substrate TNO211), relative to pronase: 17±4%

B2: proteinase K (protein)
chain: AAQTNAPWGLARISSTSPGTSTYYYDESAGQGSCVYVIDTGIEASHPEFEGRAQMVKTYYYSSRDGNGHGTHCAGTVGSRTYGVAKKTQLFGVKVLDDNGSGQYSTIIAGMDFVASDKNNRNCPKGVVASLSLGGGYSSSVNSAAARLQSSGVMVAVAAGNNNADARNYSPASEPSVCTVGASDRYDRRSSFSNYGSVLDIFGPGTSILSTWIGGSTRSISGTSMATPHVAGLAAYLMTLGKTTAASACRYIADTANKGDLSNIPFGTVNLLAYNNYQA
Substrate AA
  visible color from cleavage of the dye-labelled immobilized substrate: AA substrate reacted with pronase and proteinase K did produce a visible color within 2.5 h at 37 °C
RH substrate
  cleavage of the dye-labelled immobilized substrate (color generation): none of the enzyme preparations were successful in cleaving the RH substrate
